Source: patent US20160061839A1 (LABORATORY CORPORATION OF AMERICA, published 2016)

What was measured:
Her-3 = biological target: T1, Her-3 (human, UniProt P21860 20-1342); experiment: IHC on FFPE 293H3-clone 1 cells over-expressing HER3
T1 construct: whole, on cells; In the IHC and VERATAG assays the protein stood in formalin-fixed, paraffin-embedded cells or tumor sections; also called ErbB3; c-erb-B3

Her-2 = biological target: T2, Her-2 (human, UniProt P04626 23-1255); experiment: IHC on FFPE SKOV3 cells (high HER2, low HER3)
T2 construct: whole, on cells; also called ErbB2; c-Erb-B2

T1 sequence (P21860 20-1342): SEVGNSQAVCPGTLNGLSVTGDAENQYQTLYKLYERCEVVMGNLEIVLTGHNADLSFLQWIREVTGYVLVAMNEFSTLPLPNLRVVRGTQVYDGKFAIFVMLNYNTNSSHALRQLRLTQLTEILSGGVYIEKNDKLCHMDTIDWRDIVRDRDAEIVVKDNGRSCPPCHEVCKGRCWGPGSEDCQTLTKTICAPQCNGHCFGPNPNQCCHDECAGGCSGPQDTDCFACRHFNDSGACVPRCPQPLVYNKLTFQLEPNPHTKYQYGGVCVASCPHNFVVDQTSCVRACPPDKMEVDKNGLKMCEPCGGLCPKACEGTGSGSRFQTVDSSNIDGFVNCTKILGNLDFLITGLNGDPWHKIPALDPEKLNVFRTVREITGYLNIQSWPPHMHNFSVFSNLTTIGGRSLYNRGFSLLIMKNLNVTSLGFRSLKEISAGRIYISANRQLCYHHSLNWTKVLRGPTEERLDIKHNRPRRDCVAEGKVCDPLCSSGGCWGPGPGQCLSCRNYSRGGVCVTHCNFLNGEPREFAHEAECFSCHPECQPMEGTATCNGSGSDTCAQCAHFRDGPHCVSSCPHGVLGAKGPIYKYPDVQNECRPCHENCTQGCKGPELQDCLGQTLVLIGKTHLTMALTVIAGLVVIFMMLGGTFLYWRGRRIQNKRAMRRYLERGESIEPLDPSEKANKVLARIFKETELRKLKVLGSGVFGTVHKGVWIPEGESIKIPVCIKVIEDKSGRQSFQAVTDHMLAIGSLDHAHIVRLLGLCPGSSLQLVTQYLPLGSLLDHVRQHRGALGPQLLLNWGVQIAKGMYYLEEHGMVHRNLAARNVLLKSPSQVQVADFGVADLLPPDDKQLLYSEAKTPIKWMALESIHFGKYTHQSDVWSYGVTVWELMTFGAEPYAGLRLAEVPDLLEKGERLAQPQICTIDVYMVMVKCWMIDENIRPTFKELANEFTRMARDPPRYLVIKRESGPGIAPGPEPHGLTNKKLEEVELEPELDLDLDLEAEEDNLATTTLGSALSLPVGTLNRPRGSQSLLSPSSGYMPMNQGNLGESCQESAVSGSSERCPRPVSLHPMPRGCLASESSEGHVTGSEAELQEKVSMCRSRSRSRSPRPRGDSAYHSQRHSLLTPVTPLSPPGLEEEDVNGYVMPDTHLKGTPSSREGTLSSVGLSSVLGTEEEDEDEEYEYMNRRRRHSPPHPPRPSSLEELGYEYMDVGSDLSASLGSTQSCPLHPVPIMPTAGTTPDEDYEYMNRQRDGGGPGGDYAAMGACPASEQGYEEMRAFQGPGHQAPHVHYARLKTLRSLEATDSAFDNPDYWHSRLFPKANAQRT

binding result (Her-3): binds | binding result (Her-2): no binding
B1: Her3.B9A11.H1 (antibody, V domains shown)
VH: EVQLQQPGTVLARPGASVRMSCKASGYTFTSYWMHWVKQRPGQGLEWIGAIYPGNSDTRDNQKFKGKAELTAVTSASTAYMELSSLTNEDSAVYYCTSYYFDGAGYFDFWGQGTTLTVSS
VL: DIVMSQSPSSLAVSAGEKVTLSCKSSQSLLNSRTRKNYLAWYQQKPGQSPKLLIYWASTRESGVPDRFTGSGSGTDFTLTVSSVQAEDLAVYYCKQSYNLWTFGGGTKLEIK
notes: Mouse hybridoma monoclonal antibody; The matched isotype control is IgG1; also called B9A11-biotin
